Results published in publication PMC6424575.

Target: stand-alone thioesterase (TE) domain of the 6-deoxyerythronolide B synthase (DEBS)
Test: SEC

stand-alone thioesterase (TE) domain of the 6-deoxyerythronolide B synthase (DEBS) (domain or fragment)
stoichiometry N: 2
